Measured values as given in patent US8518399B2, “Methods of treating infections originating from viruses in the herpesviridae family” (Tamir Biotechnology, Inc., priority 2010, dated 2013).

Tests used:
[1] = tested on: roseolovirus-6A; test: Antiviral activity against roseolovirus-6A in HSB-2 cells, viral DNA by real time PCR; assay type: cell-based, human; settings: SI greater than 1 = active, FIGS. 1 and 2
Description: (§1) To evaluate the activity of the three tested RNases against human herpesviridae infections, the following quantitative PCR assay was used:
(§2) Solutions of the tested RNases were prepared in cell culture medium without use of dimethyl sulfoxide (“DMSO”). DMSO is unnecessary because the tested RNases are water-soluble.
Antiviral activity against roseolovirus-6B was evaluated in Molt-3 cells. The tested RNases were diluted using methods used for the CPE-inhibition assay in RPMI 1640 medium (Roswell Park Memorial Institute) supplemented with 10% FBS, L-glutamine, penicillin and gentamicin. 2×10^4 Molt-3 cells were added to each well, and infected cells were added to achieve the desired multiplicity of infection and incubated at 37° C. for 4 days. The accumulation of viral DNA was determined by real time PCR assays. Antiviral activity against roseolovirus-6A was evaluated by similar procedures, but using HSB-2 cells.
(§3) For all the assays, cytotoxicity was evaluated in the same cell line used to evaluate antiviral activity and was assessed by CellTiter-Glo assays.

[2] = tested on: human cytomegalovirus; test: Antiviral activity against human cytomegalovirus, CPE-inhibition assay in primary HFF cells with real time PCR readout; assay type: cell-based; settings: primary human foreskin fibroblast (HFF) cells; SI greater than 1 = active; FIGS. 1 and 2
Description: as §1, §2
Antiviral activity against herpes simplex virus-1, herpes simplex virus-2, and human cytomegalovirus was evaluated by cytopathic effect inhibition (“CPE-inhibition”) assays in primary human foreskin fibroblast (HFF) cells. Primary HFF cells were counted and 2.5×10^4 cells per well were seeded into 96-well plates in 100 it of minimal essential medium supplemented with 10% fetal bovine serum (“FBS”). The cells were then incubated for 24 hours at 37° C. in a 5% CO2 humidified incubator. Solutions of the tested RNases were added to triplicate wells to yield a final concentration of 10 μM, and diluted to yield concentrations of 2, 0.4, 0.08, 0.016, and 0.0032 μM. The plates were then incubated for 1 h and 100 μl of a virus suspension was added. […] Total DNA from the cultures was harvested and viral genome copy number was determined by real time PCR assays.
as §3

B1: ranpirnase (protein, UniProt P22069 1-104, looked up)
Protein P-30: QDWLTFQKKHITNTRDVDCDNIMSTNLFHCKDKNTFIYSRPEPVKAICKGIIASKNVLTTSEFYLSDCNVTSRPCKYKLKKSTNKFCVTCENQAPVHFVGVGSC
notes: An RNase, disclosed and claimed in U.S. Pat. No. 5,559,212
- activity against roseolovirus-6A (judged by SI = CC50/EC50) [1]: entirely inactive
- activity against human cytomegalovirus (judged by SI = CC50/EC50) [2]: extraordinarily active
